Test results reported in US10927354B2, “D-type amino acid dehydrogenase” (Kureha Corporation, priority 2017, dated 2021).

B1: D-type amino acid dehydrogenase: D-type amino acid dehydrogenase derived from N. massiliense, amino acid sequence SEQ ID NO: 2, hexamer (protein)
chain: MSNVYNVAVVGYGNIGKYAVQAIDAAPDMQLAGVVRRASSAAKDTPPELVGRRVVHDIRDLEQVDVAILAAPTRTIPAYARDVLSLGIHTVDSYDIHGELANLRRELDDVSKKNDSVAIISAGWDPGTDSMIRGMLEFMAPGGLTYTNFGPGMSMGHSVAVKAIDGVKDALSLTIPLGTSIHRRMVYVELEAGADFETVKKAILADPYFVNDETHVTQVPNVQQLVNVGHGVSMERRGVSGATHNQLFTFEMRINNPALTSQVLVAAARATFKQQPGAYTMIEVPVIDYLPGDRDDIIRRLV
modifications: hexamer; Numidum massiliense

Tests used:
[1] = test system: D-type amino acid dehydrogenase derived from N. massiliense; test: Kinetic analysis of D-type amino acid dehydrogenase; format: biochemical, Numidum massiliense; settings: meso-diaminopimelic acid as substrate, NADP^+ or NAD^+ as coenzyme; values for meso-diaminopimelic acid determined using NADP^+
Experimental: The absorbance was measured by an ultraviolet-visible spectrophotometer UV-1800 (available from SHIMADZU). The specific activity of the enzyme was calculated from the concentration of the enzyme used and enzyme dilution rate using the obtained absorbance change and the following equation. […] A turnover number (kcat) as a reaction rate parameter, a Michaelis constant (Km) value, and catalytic efficiency (kcat/Km) were determined with Igor Pro ver. 3.14 (available from WaveMetrics) based on Michaelis-Menten equation after the initial velocities were plotted against different substrates and coenzyme concentrations.

[2] = Optimum temperature in catalytic reaction; format: biochemical; settings: deamination of meso-diaminopimelic acid, NADP^+, 50-80° C. tested
Experimental: The measurement results are illustrated in FIG. 6. From the results, it was confirmed that the optimum temperature for activity was about 75° C.

[3] = Optimum pH in catalytic reaction (deamination of meso-diaminopimelic acid); format: biochemical; settings: deamination of 10 mM meso-diaminopimelic acid, 1.25 mM NADP^+, 50° C.
Experimental: The optimum pH was evaluated for the D-type amino acid dehydrogenase obtained in Example 2. The activity of the enzyme was measured by determining an increase in absorbance at wavelength of 340 nm of NADPH produced by the catalytic reaction of the enzyme.
The absorbance was measured by an ultraviolet-visible spectrophotometer UV-1800 (available from SHIMADZU). The specific activity of the enzyme was calculated from the concentration of the enzyme used and enzyme dilution rate using the obtained absorbance change and the following equation.

[4] = Coenzyme dependence by activity-staining; format: biochemical; settings: 10 mM meso-diaminopimelic acid, 1.25 mM coenzyme, pH 8.0, 50° C., 30 minutes
Experimental: The coenzyme dependence was evaluated for the D-type amino acid dehydrogenase obtained in Example 2 above. The coenzyme dependence of the enzyme was evaluated by an activity-staining method due to a catalytic reaction of the enzyme.
More specifically, an appropriate amount of enzyme solution was subjected to disc gel electrophoresis. […] The 2-(4-iodophenyl)-3-(4-nitrophenyl)-5-phenyl-2H-tetrazolium chloride in the reaction solution is reduced to form a […] formazan. A reaction formula is indicated below. In the following reaction formula, the D-type amino acid dehydrogenase is referred to as “meso-DAPDH”.

[5] = pH stability of D-type amino acid dehydrogenase; format: physicochemical; settings: pH 5.5 to 9.5, 50° C., 30 minutes; relative to pH 5.5 as 100%
Experimental: The D-type amino acid dehydrogenase purified in Example 2 was subjected to a heat treatment at 50° C., in 100 mM of each buffer solution (pH 4.0, 4.5, 5.0, 5.5, 6.0, 6.5, 7.0, 7.5, 8.0, 8.5, 9.0, 9.5, 10.0, 10.5, 11.0, 11.3, 12.0, 12.3, or 13.0) for 30 minutes to confirm residual activity after being left to stand for 5 minutes on ice. […] The residual activity after treatment at other pH was calculated as a relative activity with treatment at pH 5.5 as 100%.

[6] = Thermal stability of D-type amino acid dehydrogenase; format: physicochemical; settings: 60° C., 30 minutes, 10 mM phosphate buffer pH 7.2; relative to treatment at 40° C. as 100%
Experimental: The D-type amino acid dehydrogenase purified in Example 2 was heat-treated in 10 mM phosphate buffer solution (pH 7.2) under various temperature conditions (40° C., 45° C., 50° C., 55° C., 60° C., 65° C., or 70° C.) for 30 minutes to confirm residual activity after being left to stand for 5 minutes on ice. […] The residual activity after treatment at other temperatures was calculated as a relative activity with treatment at 40° C. as 100%.

[7] = Activity-staining with D-alanine or L-alanine; format: biochemical; settings: 10 mM D-alanine or L-alanine, 1.25 mM NADP^+, pH 8.0, 50° C., 30 minutes
Experimental: The activity was evaluated for the D-type amino acid dehydrogenase obtained in Example 2 above. The activity of the enzyme was evaluated by an activity-staining method due to a catalytic reaction of the enzyme. More specifically, an appropriate amount of enzyme solution was subjected to disc gel electrophoresis. […] 2-(4-iodophenyl)-3-(4-nitrophenyl)-5-phenyl-2H-tetrazolium chloride in the reaction solution is reduced to form a […] formazan. A reaction formula is indicated below. In the following reaction formula, the D-type amino acid dehydrogenase is referred to as “meso-DAPDH”.

Molecule | kcat [1] [s⁻¹] | optimum temperature for activity [2] | optimum pH for activity [3] | coenzyme dependence (activity-staining) [4] | residual activity after pH treatment [5] [%] | residual activity after heat treatment [6] | D/L selectivity (activity-staining) [7]
NC(=O)c1ccc[n+]([C@@H]2O[C@H](COP(=O)([O-])OP(=O)(O)OC[C@H]3O[C@@H](n4cnc5c(N)ncnc54)[C@H](O)[C@@H]3O)[C@@H](O)[C@H]2O)c1 [NAD^1] | 8930 | – | – | – | – | – | –
B1 | – | about 75 °C | 10.5 | utilized both NAD^+ and NADP^+ coenzymes | ≥ 90 | about 76% | selectively acts on the D-amino acid
